Source: patent US20230302148A1, “PHARMACEUTICAL COMPOSITION COMPRISING LONG-ACTING CONJUGATE OF TRIPLE GLUCAGON/GLP-1/GIP RECEPTOR AGONIST” (HANMI PHARM. CO., LTD., priority 2020, published 2023)
Bridges are numbered along the chain shown (N, C = ends). Where no end group is shown, it is not given here. [ ]: non-standard residue; d: D form. The star is where a group is joined. Acetyl(2-(4-imidazolyl)) = O=C(Cc1c[nH]cn1)*; Aib = CC(C)(N)C(=O)O

T1: human GIP receptor (human, UniProt P48546 22-466)
T1 sequence (looked up): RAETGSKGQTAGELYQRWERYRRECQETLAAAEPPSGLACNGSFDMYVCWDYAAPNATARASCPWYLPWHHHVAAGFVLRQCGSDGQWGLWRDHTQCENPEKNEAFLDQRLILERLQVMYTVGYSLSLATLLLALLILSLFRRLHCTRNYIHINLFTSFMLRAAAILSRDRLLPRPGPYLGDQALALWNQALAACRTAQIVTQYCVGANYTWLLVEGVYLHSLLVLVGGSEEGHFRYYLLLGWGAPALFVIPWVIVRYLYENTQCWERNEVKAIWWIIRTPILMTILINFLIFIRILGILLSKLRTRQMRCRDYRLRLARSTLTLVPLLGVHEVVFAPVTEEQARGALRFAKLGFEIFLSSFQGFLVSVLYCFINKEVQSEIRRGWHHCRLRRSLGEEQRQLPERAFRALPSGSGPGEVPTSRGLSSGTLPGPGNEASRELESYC


Key:
Assay in all cases: cell-based or functional assay
human GLP-1 receptor = human GLP-1 receptor (human, UniProt P43220 24-463)
human GIP receptor = target: T1, human GIP receptor
human GCG receptor = human GCG receptor (human, UniProt P47871 26-477)
Sequence of human GCG receptor (P47871 26-477): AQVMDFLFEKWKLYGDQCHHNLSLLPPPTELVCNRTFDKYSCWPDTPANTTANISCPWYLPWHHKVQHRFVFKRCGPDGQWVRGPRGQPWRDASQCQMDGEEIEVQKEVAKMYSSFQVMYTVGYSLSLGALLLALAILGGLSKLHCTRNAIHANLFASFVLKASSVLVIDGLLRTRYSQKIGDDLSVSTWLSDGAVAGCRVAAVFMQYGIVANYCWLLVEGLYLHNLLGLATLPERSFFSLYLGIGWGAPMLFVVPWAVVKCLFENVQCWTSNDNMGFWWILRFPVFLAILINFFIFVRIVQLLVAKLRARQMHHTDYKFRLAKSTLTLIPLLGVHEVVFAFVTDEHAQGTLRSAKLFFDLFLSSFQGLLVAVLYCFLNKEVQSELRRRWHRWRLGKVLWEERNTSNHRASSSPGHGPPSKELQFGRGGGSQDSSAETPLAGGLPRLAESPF

| Binder | In vitro activity relative to native peptide (%) vs. GLP-1 (human GLP-1 receptor) [%] | In vitro activity relative to native peptide (%) vs. GIP (human GIP receptor) [%] | In vitro activity relative to native peptide (%) vs. Glucagon (human GCG receptor) [%] |
| --- | --- | --- | --- |
| {Acetyl(2-(4-imidazolyl))}-[Aib]QGTFTSDYSIAMDEIHQKDFVNWLLAQKC (bridge 15-19) [triple agonist of SEQ ID NO: 92] | 0.8 | 0.4 | < 0.1 |
| H[Aib]EGTFTSDYSIAMDEIHQKDFVNWLLAQKC (bridge 16-20) [triple agonist of SEQ ID NO: 79] | 41.5 | 1.4 | 4.9 |
| H[Aib]QGTFTSDVSKYLDGQAAQEFVAWLLAGC [triple agonist of SEQ ID NO: 9] | 32.1 | < 0.1 | 0.13 |
| H[Aib]QGTFTSDYSKYLDEKRQKEFVQWLLDTKC (bridge 16-20) [triple agonist of SEQ ID NO: 78] | 51 | 0.12 | 14 |
| {Acetyl(2-(4-imidazolyl))}-[Aib]QGTFTSDYSKYLDEKRQKEFVNWLLAQC (bridge 15-19) [triple agonist of SEQ ID NO: 86] | 28.4 | 0.2 | 0.4 |
| Y[Aib]QGTFTSDYSKALDEKAAKEFVNWLLDHHPSSGQPPPSC (bridge 16-20) [triple agonist of SEQ ID NO: 98] | 28.1 | 47.1 | 8.2 |
| Y[Aib]QGTFTSDYSKYLDEKRAKDFVQWLLDHHPSSGQPPPSC (bridge 16-20) [triple agonist of SEQ ID NO: 76] | 10.3 | 11.7 | 47.6 |
| {Acetyl(2-(4-imidazolyl))}-[Aib]QGTFTSDYSKYLDEKRQKEFVQWLLNTC (bridge 15-19) [triple agonist of SEQ ID NO: 81] | 7.8 | < 0.1 | 0.3 |
| H[Aib]QGTFTSDVSKYLDGQAAQEFVAWLLAGGGPSSGAPPPSC [triple agonist of SEQ ID NO: 10] | 46 | < 0.1 | < 0.1 |
| {Acetyl(2-(4-imidazolyl))}-[Aib]QGTFTSDYSIAMDEIHQKDFVNWLLNTC (bridge 15-19) [triple agonist of SEQ ID NO: 87] | 0.9 | < 0.1 | < 0.1 |
| {Acetyl(2-(4-imidazolyl))}-[Aib]QGTFTSDYSKYLDEKRQKEFVNWLLAQKC (bridge 15-19) [triple agonist of SEQ ID NO: 93] | 5.7 | 0.7 | 0.3 |
| {Acetyl(2-(4-imidazolyl))}-[Aib]QGTFTSDYSIAMDEIHQKDFVNWLLNTKC (bridge 15-19) [triple agonist of SEQ ID NO: 94] | 0.5 | < 0.1 | < 0.1 |
| {Acetyl(2-(4-imidazolyl))}-[Aib]QGTFTSDYSKYLDEKRQKEFVQWLLNTKC (bridge 15-19) [triple agonist of SEQ ID NO: 88] | 9.6 | < 0.1 | 0.3 |
| Y[Aib]QGTFTSDYSKYLDEKRAKEFVQWLLDHCPSSGQPPPS (bridge 16-20) [triple agonist of SEQ ID NO: 96] | 34.4 | 5.2 | 195 |
| {Acetyl(2-(4-imidazolyl))}-[Aib]QGTFTSDYSKYLDEKRQKEFVQWLLDTKC (bridge 15-19) [triple agonist of SEQ ID NO: 89] | 7.1 | < 0.1 | 0.7 |
| {Acetyl(2-(4-imidazolyl))}-[Aib]EGTFTSDYSIAMDEIHQKDFVDWLLAEKC (bridge 15-19) [triple agonist of SEQ ID NO: 91] | 31.9 | 0.3 | 16.8 |
| {Acetyl(2-(4-imidazolyl))}-[Aib]QGTFTSDYSKYLDEKRQKEFVQWLLDTC (bridge 15-19) [triple agonist of SEQ ID NO: 82] | 9.5 | < 0.1 | 1.1 |
| H[Aib]EGTFTSDYSIAMDEIHQKDFVDWLLAEKC (bridge 16-20) [triple agonist of SEQ ID NO: 80] | 8.1 | 0.1 | 0 |
| Y[Aib]QGTFTSDYSKYLDEKAAKEFVQWLLDHHPSSGQPPPSC (bridge 16-20) [triple agonist of SEQ ID NO: 75] | 35.1 | 18 | 8.5 |
| Y[Aib]QGTFTSDYSKYLDEKRAKEFVQWLLCHHPSSGQPPPS (bridge 16-20) [triple agonist of SEQ ID NO: 95] | 2.1 | < 0.1 | 0.4 |
| {Acetyl(2-(4-imidazolyl))}-[Aib]EGTFTSDYSIAMDEIHQKDFVDWLLAEC (bridge 15-19) [triple agonist of SEQ ID NO: 84] | 4.2 | < 0.1 | < 0.1 |
| {Acetyl(2-(4-imidazolyl))}-[Aib]QGTFTSDYSIAMDEIHQKDFVNWLLAQC (bridge 15-19) [triple agonist of SEQ ID NO: 85] | 4.3 | 0.3 | < 0.1 |
| {Acetyl(2-(4-imidazolyl))}-[Aib]EGTFTSDYSIAMDEIHQKDFVNWLLAQKC (bridge 15-19) [triple agonist of SEQ ID NO: 90] | 7.4 | < 0.1 | < 0.1 |
| {Acetyl(2-(4-imidazolyl))}-[Aib]EGTFTSDYSIAMDEIHQKDFVNWLLAQC (bridge 15-19) [triple agonist of SEQ ID NO: 83] | 47.3 | 0.4 | 1.3 |
| Y[Aib]QGTFTSDYSKYLDEKAAKDFVQWLLDHHPSSGQPPPSC (bridge 16-20) [triple agonist of SEQ ID NO: 77] | 38.7 | 35.5 | 12.2 |
